Molecular target: T1, soluble human TLR3 extracellular domain (human, UniProt O15455 24-704)
T1 construct: extracellular domain; Coated on the ELISA plate; also called hTLR3; extracellular domain of human TLR3
Test: ELISA, soluble human TLR3 extracellular domain coated on plate, antibody titrated, anti-mouse IgG-HRP detection
Method: All 16 mAbs were assessed for binding to the extracellular domain of human TLR3 using an ELISA format as compared to the parental murine mAb C1068. Briefly, soluble human TLR3 extracellular domain was coated into the wells of a 96 well plate and candidate mAbs were incubated at various concentrations (10-3 to 103 ng/ml) and bound antibody was detected with rabbit anti-mouse IgG-HRP for murine IgG1 isotypes (Zymed, South San Francisco, Calif.) or HRP-labeled anti-human IgG (Jackson 109-036-088) for human IgG4 isotypes. $EC50$ values were determined and the screening results are shown in FIG. 9 and Table 2 below.

EC50: 8 ng/mL
B1: murine anti-TLR3 mAb C1068 (antibody, V domains shown)
VH: QVQLQQPGAELVQPGTSVRLSCKASGYIFTTYWIHWVKQRPGQGLEWIGEINPNNGRINYNEKFKTKATLTVDKSSSTAYMQLSSLTSEDSAVYYCTRVGVMITTFPYWGQGTLVTVSA
VL: DIQMTQSPASLSASVGETVTITCRASGNIHNYLAWYQQKQGKSPQLLVYNAKTLADGVPSRFSGSESGTQYSLKINSLQPEDFGSYYCQHFWSTPFTFGSGTKLELK
notes: The ELISA text implies a murine IgG1 isotype (detected with anti-mouse IgG-HRP for murine IgG1 isotypes); also called parental murine mAb C1068

— US8093068 (Janssen / Centocor, dated 2012)
